Assay results as given in patent US20170360893A1 (Merck Sharp & Dohme, published 2017).
*1 amine or outer side, *2 acyl side, *3 side chain or, on linkers, in order; H or OH if unused. Where no end group is shown, it is not given here. Side-chain parts run from the residue outwards. [ ]: non-standard residue; d: D form. The star is where a group is joined. γGlu = O=C(O)[C@H](CCC(=O)[*:2])N[*:1]; Palmitoyl = CCCCCCCCCCCCCCCC(=O)*; Nle = CCCC[C@H](N)C(=O)O; Aib = CC(C)(N)C(=O)O

How the values were obtained:
[1] = molecular target: human glucagon-like peptide 1 receptor (human, UniProt P43220 24-463); assay: cell-based or functional assay
human glucagon receptor = human glucagon receptor (human, UniProt P47871 26-477); assay: cell-based or functional assay
Sequence of human glucagon receptor (P47871 26-477): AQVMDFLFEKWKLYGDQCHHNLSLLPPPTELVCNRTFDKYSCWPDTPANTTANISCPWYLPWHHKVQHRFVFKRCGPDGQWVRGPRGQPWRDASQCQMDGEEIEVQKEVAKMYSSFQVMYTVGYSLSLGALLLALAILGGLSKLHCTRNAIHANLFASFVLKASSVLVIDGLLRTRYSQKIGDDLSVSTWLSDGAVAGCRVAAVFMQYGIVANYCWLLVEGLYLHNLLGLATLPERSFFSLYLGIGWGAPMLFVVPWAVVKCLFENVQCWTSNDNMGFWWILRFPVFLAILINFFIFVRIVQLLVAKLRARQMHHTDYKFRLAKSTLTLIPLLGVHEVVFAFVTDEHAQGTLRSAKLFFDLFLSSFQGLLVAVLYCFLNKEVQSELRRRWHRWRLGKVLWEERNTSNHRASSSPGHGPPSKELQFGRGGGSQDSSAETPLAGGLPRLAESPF

Binder: H[Aib]VGTFTSDK([γGlu-γGlu-Palmitoyl])SKYLD[Aib]RAAQDFVQWL[Nle]DT-NH2 [Co-agonist Peptide 4]
- GLPR1 EC50 (nM) human; cAMP production (HitHunter cAMP XS) in cells expressing human GLP-1R, 20% human serum [1]: 0.1 nM
- GCGR EC50 (nM) human; cAMP production (HitHunter cAMP XS) in cells expressing human GCGR, 20% human serum (human glucagon receptor): 0.89 nM
